Tests used:
[1] = target: T1, DLL3 on tumor cells (SHP-77, HCC1833, G361) (human, UniProt Q9NYJ7 27-618); assay: cell-based or functional assay
T1 sequence: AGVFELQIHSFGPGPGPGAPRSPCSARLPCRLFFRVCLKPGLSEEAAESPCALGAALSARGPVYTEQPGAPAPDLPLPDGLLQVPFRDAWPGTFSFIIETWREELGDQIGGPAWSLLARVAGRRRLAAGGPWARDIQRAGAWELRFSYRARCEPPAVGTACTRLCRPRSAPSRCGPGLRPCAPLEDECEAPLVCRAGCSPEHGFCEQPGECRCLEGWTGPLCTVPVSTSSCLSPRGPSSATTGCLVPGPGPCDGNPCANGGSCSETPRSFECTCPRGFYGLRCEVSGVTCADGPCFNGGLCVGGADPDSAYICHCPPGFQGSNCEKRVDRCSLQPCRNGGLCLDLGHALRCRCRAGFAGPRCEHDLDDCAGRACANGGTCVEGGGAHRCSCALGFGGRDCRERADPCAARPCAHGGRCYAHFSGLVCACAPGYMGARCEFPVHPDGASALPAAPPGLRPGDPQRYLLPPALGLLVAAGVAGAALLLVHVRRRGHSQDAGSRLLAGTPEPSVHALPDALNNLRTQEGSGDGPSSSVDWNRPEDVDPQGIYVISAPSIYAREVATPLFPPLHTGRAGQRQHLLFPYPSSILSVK

recombinant human DLL3 = target: T2, recombinant human DLL3 (human, UniProt Q9NYJ7 27-492); assay: SPR (Biacore T200), antibody captured by goat anti-Fc, DLL3 titrated
T2 construct: also called DLL3 antigen; Delta-like protein 3
T2 sequence: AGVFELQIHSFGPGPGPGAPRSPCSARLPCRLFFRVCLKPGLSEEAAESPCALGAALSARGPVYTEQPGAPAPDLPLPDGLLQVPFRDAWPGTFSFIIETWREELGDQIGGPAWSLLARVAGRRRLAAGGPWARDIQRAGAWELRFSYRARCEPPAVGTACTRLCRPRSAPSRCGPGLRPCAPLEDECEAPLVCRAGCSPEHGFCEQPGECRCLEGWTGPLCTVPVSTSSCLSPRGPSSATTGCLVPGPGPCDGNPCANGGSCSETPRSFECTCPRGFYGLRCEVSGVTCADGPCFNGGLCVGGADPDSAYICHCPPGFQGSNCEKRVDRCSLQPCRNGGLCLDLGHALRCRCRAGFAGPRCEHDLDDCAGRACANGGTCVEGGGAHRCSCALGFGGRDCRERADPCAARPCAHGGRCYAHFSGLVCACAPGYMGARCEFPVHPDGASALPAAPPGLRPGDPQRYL

recombinant HLA-G [2] = target: recombinant HLA-G (human); assay: ELISA, scFv in E. coli supernatant on recombinant HLA-G
recombinant HLA-G [3] = target: recombinant HLA-G (human); assay: ELISA after 10 min heat treatment of the scFv supernatant

B1: DL3B582 (bispecific antibody)
heavy: QVQLVQSGAEVKKPGASVKVSCKASGNTFTNYYIHWVRQAPGQGLEWMGIINPSGGSTSYAQKLQGRMTMTRDTSTSTVYMELSSLRSEDTAVYFCARQGPFIGDAFDIWGQGTMVTVSSASTKGPSVFPLAPSSKSTSGGTAALGCLVKDYFPEPVTVSWNSGALTSGVHTFPAVLQSSGLYSLSSVVTVPSSSLGTQTYICNVNHKPSNTKVDKKVEPKSCDKTHTCPPCPAPEAAGGPSVFLFPPKPKDTLMISRTPEVTCVVVSVSHEDPEVKFNWYVDGVEVHNAKTKPREEQYNSTYRVVSVLTVLHQDWLNGKEYKCKVSNKALPAPIEKTISKAKGQPREPQVYVLPPSREEMTKNQVSLLCLVKGFYPSDIAVEWESNGQPENNYLTWPPVLDSDGSFFLYSKLTVDKSRWQQGNVFSCSVMHEALHNHYTQKSLSLSPG
light: DIQMTQSPSSLSASVGDRVTITCRASQGISNYLAWFQQKPGKAPKSLIYAASSLQSGVPSKFSGSGSGTDFTLTISSLQPEDFATYYCQQYNSYPYTFAQGTKLEIKRTVAAPSVFIFPPSDEQLKSGTASVVCLLNNFYPREAKVQWKVDNALQSGNSQESVTEQDSKDSTYSLSSTLTLSKADYEKHKVYACEVTHQGLSSPVTKSFNRGEC
scFv: DIQMTQSPSSLSASVGDRVTITCRARQSIGTAIHWYQQKPGKAPKLLIKYASESISGVPSRFSGSGSGTDFTLTISSLQPEDFATYYCQQSGSWPYTFGQGTKLEIKGGSEGKSSGSGSESKSTGGSEVQLVESGGGLVKPGGSLRLSCAASGFTFSRYNMNWVRQAPGKGLEWVSSISTSSNYIYYADSVKGRFTFSRDNAKNSLDLQMSGLRAEDTAIYYCTRGWGPFDYWGQGTLVTVSSEPKSSDKTHTCPPCPAPEAAGGPSVFLFPPKPKDTLMISRTPEVTCVVVSVSHEDPEVKFNWYVDGVEVHNAKTKPREEQYNSTYRVVSVLTVLHQDWLNGKEYKCKVSNKALPAPIEKTISKAKGQPREPQVYVYPPSREEMTKNQVSLTCLVKGFYPSDIAVEWESNGQPENNYKTTPPVLDSDGSFALVSKLTVDKSRWQQGNVFSCSVMHEALHNHYTQKSLSLSPG
notes: also called CD3W245-LH-scFv; DL3B279-Fab
[1]
  Cytotoxicity, % lysis of SHP-77 cells (whole PBMCs, 1:1 ET, 30 nM): 87.3%
Recombinant human DLL3
  Kd: 0.016 nM

B2: DL3B583 (bispecific antibody)
heavy: QVQLVQSGAEVKKPGASVKVSCKASGNTFTNYYIHWVRQAPGQGLEWMGIINPSGGSTSYAQKLQGRMTMTRDTSTSTVYMELSSLRSEDTAVYFCARQGPFIGDAFDIWGQGTMVTVSSASTKGPSVFPLAPSSKSTSGGTAALGCLVKDYFPEPVTVSWNSGALTSGVHTFPAVLQSSGLYSLSSVVTVPSSSLGTQTYICNVNHKPSNTKVDKKVEPKSCDKTHTCPPCPAPEAAGGPSVFLFPPKPKDTLMISRTPEVTCVVVSVSHEDPEVKFNWYVDGVEVHNAKTKPREEQYNSTYRVVSVLTVLHQDWLNGKEYKCKVSNKALPAPIEKTISKAKGQPREPQVYVLPPSREEMTKNQVSLLCLVKGFYPSDIAVEWESNGQPENNYLTWPPVLDSDGSFFLYSKLTVDKSRWQQGNVFSCSVMHEALHNHYTQKSLSLSPG
light: DIQMTQSPSSLSASVGDRVTITCRASQGISNYLAWFQQKPGKAPKSLIYAASSLQSGVPSKFSGSGSGTDFTLTISSLQPEDFATYYCQQYNSYPYTFAQGTKLEIKRTVAAPSVFIFPPSDEQLKSGTASVVCLLNNFYPREAKVQWKVDNALQSGNSQESVTEQDSKDSTYSLSSTLTLSKADYEKHKVYACEVTHQGLSSPVTKSFNRGEC
scFv: EVQLVESGGGLVKPGGSLRLSCAASGFTFSRYNMNWVRQAPGKGLEWVSSISTSSNYIYYADSVKGRFTFSRDNAKNSLDLQMSGLRAEDTAIYYCTRGWGPFDYWGQGTLVTVSSGGSEGKSSGSGSESKSTGGSDIQMTQSPSSLSASVGDRVTITCRARQSIGTAIHWYQQKPGKAPKLLIKYASESISGVPSRFSGSGSGTDFTLTISSLQPEDFATYYCQQSGSWPYTFGQGTKLEIKEPKSSDKTHTCPPCPAPEAAGGPSVFLFPPKPKDTLMISRTPEVTCVVVSVSHEDPEVKFNWYVDGVEVHNAKTKPREEQYNSTYRVVSVLTVLHQDWLNGKEYKCKVSNKALPAPIEKTISKAKGQPREPQVYVYPPSREEMTKNQVSLTCLVKGFYPSDIAVEWESNGQPENNYKTTPPVLDSDGSFALVSKLTVDKSRWQQGNVFSCSVMHEALHNHYTQKSLSLSPG
notes: also called CD3W245-HL-scFv; DL3B279-Fab
[1]
  Cytotoxicity, % lysis of SHP-77 cells (whole PBMCs, 1:1 ET, 30 nM): 99.8%
Recombinant human DLL3
  Kd: 0.016 nM

B3: DL3B587 (bispecific antibody, human IgG1, kappa, L234A L235A)
scFv: DIQMTQSPSSLSASVGDRVTITCRASQGISNYLAWFQQKPGKAPKSLIYAASSLQSGVPSKFSGSGSGTDFTLTISSLQPEDFATYYCQQYNSYPYTFAQGTKLEIKGGSEGKSSGSGSESKSTGGSQVQLVQSGAEVKKPGASVKVSCKASGNTFTNYYIHWVRQAPGQGLEWMGIINPSGGSTSYAQKLQGRMTMTRDTSTSTVYMELSSLRSEDTAVYFCARQGPFIGDAFDIWGQGTMVTVSSEPKSSDKTHTCPPCPAPEAAGGPSVFLFPPKPKDTLMISRTPEVTCVVVSVSHEDPEVKFNWYVDGVEVHNAKTKPREEQYNSTYRVVSVLTVLHQDWLNGKEYKCKVSNKALPAPIEKTISKAKGQPREPQVYVLPPSREEMTKNQVSLLCLVKGFYPSDIAVEWESNGQPENNYLTWPPVLDSDGSFFLYSKLTVDKSRWQQGNVFSCSVMHEALHNHYTQKSLSLS
heavy: EVQLVESGGGLVKPGGSLRLSCAASGFTFSRYNMNWVRQAPGKGLEWVSSISTSSNYIYYADSVKGRFTFSRDNAKNSLDLQMSGLRAEDTAIYYCTRGWGPFDYWGQGTLVTVSSASTKGPSVFPLAPSSKSTSGGTAALGCLVKDYFPEPVTVSWNSGALTSGVHTFPAVLQSSGLYSLSSVVTVPSSSLGTQTYICNVNHKPSNTKVDKKVEPKSCDKTHTCPPCPAPEAAGGPSVFLFPPKPKDTLMISRTPEVTCVVVSVSHEDPEVKFNWYVDGVEVHNAKTKPREEQYNSTYRVVSVLTVLHQDWLNGKEYKCKVSNKALPAPIEKTISKAKGQPREPQVYVYPPSREEMTKNQVSLTCLVKGFYPSDIAVEWESNGQPENNYKTTPPVLDSDGSFALVSKLTVDKSRWQQGNVFSCSVMHEALHNHYTQKSLSLSPG
light: DIQMTQSPSSLSASVGDRVTITCRARQSIGTAIHWYQQKPGKAPKLLIKYASESISGVPSRFSGSGSGTDFTLTISSLQPEDFATYYCQQSGSWPYTFGQGTKLEIKRTVAAPSVFIFPPSDEQLKSGTASVVCLLNNFYPREAKVQWKVDNALQSGNSQESVTEQDSKDSTYSLSSTLTLSKADYEKHKVYACEVTHQGLSSPVTKSFNRGEC
notes: also called CD3W245-Fab; DL3B279-LH-scFv
[1]
  Cytotoxicity, % lysis of SHP-77 cells (whole PBMCs, 1:1 ET, 30 nM): 83.3%
Recombinant human DLL3
  Kd: 0.031 nM

B4: MHGB665 v-region as scFv (E. coli supernatant) (scFv, V domains shown)
VH: QVQLQQSGPGLVKPSQTLSLTCAISGDSVSSNSAAWNWIRQSPSRGLEWLGRTYYRSKWYNDYAVSVKSRITINPDTSKNQISLQLNSVTPEDTAVYYCAGDRRYGIVGLPFAYWGQGTLVTVSS
VL: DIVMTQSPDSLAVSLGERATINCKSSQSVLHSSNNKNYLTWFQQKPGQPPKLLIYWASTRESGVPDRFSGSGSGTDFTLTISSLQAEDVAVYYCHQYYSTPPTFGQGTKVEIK
notes: One scFv chain
Recombinant HLA-G [2]
  Room temperature binding signal: 1.52e+07
Recombinant HLA-G [3]
  % Binding retained 55° C.: 103%
  % Binding retained 60° C.: 122%
  % Binding retained 65° C.: 11%

B5: MHGB694 v-region as scFv (E. coli supernatant) (scFv, V domains shown)
VH: EVQLLESGGGLVQPGGSLRLSCAASGFTFSSYAMHWVRQAPGKGLDWVSGISGSGFSTYYVDSVKGRFTISRDNSKHTLYLQMNSLRAEDTAVYYCAKDNLVAGTVFDYWGQGTLVTVSS
VL: not shown
notes: One scFv chain
Recombinant HLA-G [2]
  Room temperature binding signal: 3.07e+06
Recombinant HLA-G [3]
  % Binding retained 55° C.: 85%
  % Binding retained 60° C.: 9%
  % Binding retained 65° C.: 4%

B6: MHGB737 v-region as scFv (E. coli supernatant) (scFv, V domains shown)
VH: EVQLLESGGGLVQPGGSLRLSCAASGFTFSSYAMHWVRQAPGKGLEWVSGISGSGFSTYYVDSVKGRFTISRDNSKNTLYLQMNSLRAEDTAVYYCAKDNLVAGTVFDYWGQGTLVTVSS
VL: not shown
notes: One scFv chain; also called MHGB737 (GL optimized B694)
Recombinant HLA-G [2]
  Room temperature binding signal: 2.75e+06
Recombinant HLA-G [3]
  % Binding retained 55° C.: 84%
  % Binding retained 60° C.: 80%
  % Binding retained 65° C.: 48%

B7: MHGB738 v-region as scFv (E. coli supernatant) (scFv, V domains shown)
VH: QVQLQQSGPGLVKPSQTLSLTCAISGDSVSSNRAAWNWIRQSPSRGLEWLGRTYYRSKWYNDYAVSVKSRITINPDTSKNQISLQLNSVTPEDTAVYYCARVRPGIPFDYWGQGTPVTVSS
VL: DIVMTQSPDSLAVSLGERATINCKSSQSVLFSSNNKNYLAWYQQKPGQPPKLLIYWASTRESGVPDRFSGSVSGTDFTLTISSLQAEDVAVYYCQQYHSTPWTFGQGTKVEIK
notes: One scFv chain; also called MHGB738 (GL optimized B688)
Recombinant HLA-G [2]
  Room temperature binding signal: 5.76e+06
Recombinant HLA-G [3]
  % Binding retained 55° C.: 14%
  % Binding retained 60° C.: 2%
  % Binding retained 65° C.: 1%

Reference: patent US20220411504A1 (Janssen / Centocor, published 2022)
